Assay results: publication doi:10.1101/2020.05.12.090381 (bioRxiv, 2020)
Positions count from the first letter of the chain named. Numbers in names are those of the source.

Assays:
[1] = target: Dendra2_(T69A)-LdcI (N-terminal fluorescent protein fusion of LdcI) (not stated | E. coli); experiment: negative stain EM
[2] = target: LdcI E445A/D447A/R468E (E. coli) (UniProt P0A9H3); experiment: negative stain EM
[3] = target: LdcI-Dendra2_(T69A) (C-terminal fluorescent protein fusion of LdcI) (E. coli | not stated); experiment: negative stain EM
[4] = target: LdcI R97E/R468E (E. coli) (UniProt P0A9H3); experiment: negative stain EM
LdcI R468E (E. coli) = LdcI R468E (E. coli) (UniProt P0A9H3); experiment: negative stain EM
negative stain EM [5] = target: the molecule itself; experiment: negative stain EM
negative stain EM [6] = target: the molecule itself; experiment: negative stain EM; remark: listed apart in the source
cryo-EM structure = target: the molecule itself; experiment: cryo-EM structure

Dendra2_(T69A)-LdcI (N-terminal fluorescent protein fusion of LdcI)
stoichiometry N [1]: 2

LdcI E445A/D447A/R468E (from UniProt P0A9H3 1-715) (enzyme)
stoichiometry N [2]: 10

LdcI-Dendra2_(T69A) (C-terminal fluorescent protein fusion of LdcI)
stoichiometry N [3]: 10

LdcI R97E/R468E (from UniProt P0A9H3 1-715) (enzyme)
stoichiometry N [4]: 10

LdcI R468E (from UniProt P0A9H3 1-715) (enzyme)
stoichiometry N (LdcI R468E (E. coli)): 10

B1: mGeosM-LdcI (N-terminal fluorescent protein fusion of LdcI) (other)
chain: MSAIKPDMKIKLRMEGNVNGHHFVIDGDGTGKPFEGKQSMDLEVKEGGPLPFAFDILTTAFMYGNRVFAKYPDNIQDYFKQSFPKGYSWERSLTFEDGGICIARNDITMEGDTFYNKVRFYGTNFPANGPVMQKKTLKWEPSTEKMYVRDGVLTGDIHMALLLEGNAHYRCDSRTTYKAKEKGVKLPGYHFVDHCIEILSHDKDYNKVKLYEHAVAHSGLPDNARRMNVIAILNHMGVYFKEEPIRELHRALERLNFQIVYPNDRDDLLKLIENNARLCGVIFDWDKYNLELCEEISKMNENLPLYAFANTYSTLDVSLNDLRLQISFFEYALGAAEDIANKIKQTTDEYINTILPPLTKALFKYVREGKYTFCTPGHMGGTAFQKSPVGSLFYDFFGPNTMKSDISISVSELGSLLDHSGPHKEAEQYIARVFNADRSYMVTNGTSTANKIVGMYSAPAGSTILIDRNCHKSLTHLMMMSDVTPIYFRPTRNAYGILGGIPQSEFQHATIAKRVKETPNATWPVHAVITNSTYDGLLYNTDFIKKTLDVKSIHFDSAWVPYTNFSPIYEGKCGMSGGRVEGKVIYETQSTHKLLAAFSQASMIHVKGDVNEETFNEAYMMHTTTSPHYGIVASTETAAAMMKGNAGKRLINGSIERAIKFRKEIKRLRTESDGWFFDVWQPDHIDTTECWPLRSDSTWHGFKNIDNEHMYLDPIKVTLLTPGMEKDGTMSDFGIPASIVAKYLDEHGIVVEKTGPYNLLFLFSIGIDKTKALSLLRALTDFKRAFDLNLRVKNMLPSLYREDPEFYENMRIQELAQNIHKLIVHHNLPDLMYRAFEVLPTMVMTPYAAFQKELHGMTEEVYLDEMVGRINANMILPYPPGVPLVMPGEMITEESRPVLEFLQMLCEIGAHYPGFETDIHGAYRQADGRYTVKVLKEESKK
stoichiometry N (negative stain EM [5]): 12

B2: LdcI H694A (enzyme, E. coli, UniProt P0A9H3 1-715, looked up)
chain: MNVIAILNHMGVYFKEEPIRELHRALERLNFQIVYPNDRDDLLKLIENNARLCGVIFDWDKYNLELCEEISKMNENLPLYAFANTYSTLDVSLNDLRLQISFFEYALGAAEDIANKIKQTTDEYINTILPPLTKALFKYVREGKYTFCTPGHMGGTAFQKSPVGSLFYDFFGPNTMKSDISISVSELGSLLDHSGPHKEAEQYIARVFNADRSYMVTNGTSTANKIVGMYSAPAGSTILIDRNCHKSLTHLMMMSDVTPIYFRPTRNAYGILGGIPQSEFQHATIAKRVKETPNATWPVHAVITNSTYDGLLYNTDFIKKTLDVKSIHFDSAWVPYTNFSPIYEGKCGMSGGRVEGKVIYETQSTHKLLAAFSQASMIHVKGDVNEETFNEAYMMHTTTSPHYGIVASTETAAAMMKGNAGKRLINGSIERAIKFRKEIKRLRTESDGWFFDVWQPDHIDTTECWPLRSDSTWHGFKNIDNEHMYLDPIKVTLLTPGMEKDGTMSDFGIPASIVAKYLDEHGIVVEKTGPYNLLFLFSIGIDKTKALSLLRALTDFKRAFDLNLRVKNMLPSLYREDPEFYENMRIQELAQNIHKLIVHHNLPDLMYRAFEVLPTMVMTPYAAFQKELHGMTEEVYLDEMVGRINANMILPYPPGVPLVMPGEMITEESRPVLEFLQMLCEIGAHYPGFETDIAGAYRQADGRYTVKVLKEESKK
binding result (negative stain EM [6]): binds

B3: LdcI E445A/D447A (enzyme, E. coli, UniProt P0A9H3 1-715, looked up)
chain: B2 chain with E445A, D447A, A694H
binding result (negative stain EM [6]): binds

B4: E. coli inducible lysine decarboxylase LdcI, wild type (enzyme, UniProt P0A9H3 1-715, looked up)
chain: B2 chain with A694H
stoichiometry N (cryo-EM structure): 10

B5: LdcI R97E (enzyme, E. coli, UniProt P0A9H3 1-715, looked up)
chain: B2 chain with R97E, A694H
binding result (negative stain EM [6]): binds

B6: LdcI H694N (enzyme, E. coli, UniProt P0A9H3 1-715, looked up)
chain: B2 chain with A694N
binding result (negative stain EM [6]): binds

B7: LdcI-mGeosM (C-terminal fluorescent protein fusion of LdcI) (other)
chain: B2 chain with A694H
stoichiometry N (negative stain EM [5]): 10
